The values below come from patent US20200024330A1.

Assay in all cases: cell-based or functional assay
Experiment [1] has as its target HIV-1 MGRM-F1-014 Env (pseudovirus) (HIV-1).
The target in experiment [2] is HIV-1 Env of pseudovirus NL43, clade B (HIV-1).
Experiment [3] concerns the target HIV-1 93UG077 envelope protein (Env) on pseudovirus (HIV-1).
In experiment [4] the target is HIV-1 IAVI-C18 envelope protein (Env) on pseudovirus (HIV-1).
Experiment [5] concerns the target HIV-1 MGRM-C-010 Env (HIV-1).
For experiment [6], the target named is HIV-1 Env of isolate MGRM-G-028 (clade G pseudovirus) (HIV-1).
The target of experiment [7] is HIV-1 Env of pseudovirus 6535.3 (Acute), clade B (HIV-1).
Experiment [8] concerns the target HIV-1 MGRM-A-006 envelope glycoprotein (Env) (HIV-1).
For experiment [9], the target named is HIV-1 Env of pseudovirus PVO.4 (Acute), clade B (HIV-1).
Experiment [10] concerns the target HIV-1 98IN022 envelope glycoprotein (Env) on pseudovirus (HIV-1).
Experiment [11] has as its target HIV-1 92UG037 envelope glycoprotein (Env) (HIV-1).
The target of experiment [12] is HIV-1 MGRM-A-007 envelope glycoprotein (Env) (HIV-1).
Experiment [13] has as its target HIV-1 MGRM-A-013 envelope glycoprotein (Env) (HIV-1).
For experiment [14], the target named is HIV-1 Env of isolate MGRM-G-011 (clade G pseudovirus) (HIV-1).
The target of experiment [15] is HIV-1 MGRM-C-008 Env (HIV-1).
Experiment [16] deals with HIV-1 Env of isolate 92UG046 (clade D) (HIV-1).
Experiment [17] has as its target HIV-1 92RW024 envelope glycoprotein (Env) on pseudovirus (HIV-1).
Experiment [18] deals with HIV-1 IAVI-C22 envelope protein (Env) on pseudovirus (HIV-1).
Experiment [19] has as its target HIV-1 Env of isolate SC422661.8 (HIV-1).
The target of experiment [20] is HIV-1 JR-CSF Env P470A (HIV-1 (isolate JR-CSF)) (UniProt P20871).
Experiment [21] has as its target HIV-1 Env of isolate CAAN.A2 (HIV-1).
For experiment [22], the target named is HIV-1 JR-CSF Env N188A (HIV-1 (isolate JR-CSF)) (UniProt P20871).
The target in experiment [23] is HIV-1 Env of isolate 98IN022 (HIV-1).
Experiment [24] addresses HIV-1 Env of isolate MGRM-AE-003 (CRF01_AE), on pseudovirus (HIV-1).
The target in experiment [25] is HIV-1 Env of isolate 92WR026 (HIV-1).
Experiment [26] concerns the target HIV-1 Env of isolate MGRM-A-010 (clade A), on pseudovirus (HIV-1).
Experiment [27] concerns the target HIV-1 Env of isolate MGRM-C-013 (HIV-1).
In experiment [28] the target is HIV-1 Env of isolate MGRM-D-016 (HIV-1).
The target of experiment [29] is HIV-1 Env of isolate MGRM-AE-005 (CRF01_AE), on pseudovirus (HIV-1).
Experiment [30] deals with HIV-1 Env of isolate MGRM-F1-006 (subtype F), on pseudovirus (HIV-1).
In experiment [31] the target is HIV-1 Env of isolate 92RW008 (HIV-1).
Experiment [32] addresses HIV-1 JR-CSF Env F468A (HIV-1 (isolate JR-CSF)) (UniProt P20871).
Experiment [33] deals with HIV-1 Env of isolate MGRM-A-009 (clade A), on pseudovirus (HIV-1).
Experiment [34] concerns the target HIV-1 MGRM-C-028 envelope glycoprotein (Env) on pseudovirus (HIV-1).
Experiment [35] has as its target HIV-1 MGRM-C-026 envelope glycoprotein (Env) on pseudovirus (HIV-1).

Sequence of 5345_I01 (PGT-137) (antibody) (VH): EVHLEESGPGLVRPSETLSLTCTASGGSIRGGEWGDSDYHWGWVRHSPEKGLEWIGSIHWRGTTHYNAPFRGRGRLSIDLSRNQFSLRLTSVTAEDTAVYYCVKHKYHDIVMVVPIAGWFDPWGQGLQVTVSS
Sequence of 5345_I01 (PGT-137) (antibody) (VL): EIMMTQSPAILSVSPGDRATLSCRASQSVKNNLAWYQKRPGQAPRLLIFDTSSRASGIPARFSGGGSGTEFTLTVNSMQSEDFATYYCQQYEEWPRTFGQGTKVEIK
Sequence of 5329_C19 (PGT-136) (antibody) (VH): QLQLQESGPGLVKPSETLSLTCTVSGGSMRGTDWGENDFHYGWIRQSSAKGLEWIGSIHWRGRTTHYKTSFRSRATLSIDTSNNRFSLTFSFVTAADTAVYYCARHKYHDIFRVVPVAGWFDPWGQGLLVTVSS
Sequence of 5329_C19 (PGT-136) (antibody) (VL): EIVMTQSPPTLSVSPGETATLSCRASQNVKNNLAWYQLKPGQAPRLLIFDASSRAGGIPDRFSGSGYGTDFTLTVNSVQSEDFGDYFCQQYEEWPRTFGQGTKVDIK

The term IC50 denotes the concentration that gives 50% inhibition. For the substance 2F5 (antibody), the IC50 (µg/ml), pseudovirus neutralization in experiment [1] is 15.1 µg/mL; in [2], 2.02 µg/mL; in experiment [6] it was 2.24 µg/mL; in [7] it was 2.76 µg/mL; in experiment [8] it was 15.7 µg/mL; in experiment [9], greater than 50 µg/mL. For the same substance, the IC50 (µg/ml), pseudovirus neutralization in [10] was greater than 50 µg/mL; in experiment [11] it was 3.24 µg/mL; in experiment [12], 16.3 µg/mL; in experiment [13] it was 0.66 µg/mL; in experiment [14], 1.16 µg/mL; in experiment [16] it was greater than 50 µg/mL. In [17], this substance came in with an IC50 (µg/ml), pseudovirus neutralization of 8.22 µg/mL. The neutralization IC50 is 4.45 µg/mL in experiment [3], greater than 50 µg/mL in experiment [4] and greater than 50 µg/mL in experiment [18]. In addition, the IC50 in experiment [5] and in [15] was greater than 50 µg/mL each time.

With 2G12 (antibody), the IC50 (µg/ml), pseudovirus neutralization is greater than 50 µg/mL in [1]; 0.49 µg/mL in [2]; 28.2 µg/mL in experiment [6]; 3.85 µg/mL in experiment [7]; 13.8 µg/mL in experiment [8]; 0.8 µg/mL in experiment [9]. For the same substance, the IC50 (µg/ml), pseudovirus neutralization in experiment [10] is greater than 50 µg/mL; in [11], 45.2 µg/mL; in experiment [12] it was greater than 50 µg/mL; in experiment [13], greater than 50 µg/mL; in [14], greater than 50 µg/mL; in experiment [16], greater than 50 µg/mL. Besides, the IC50 (µg/ml), pseudovirus neutralization in experiment [17] was greater than 50 µg/mL. For the same substance, the neutralization IC50 in [3], in [4] and in [18] was greater than 50 µg/mL throughout. Besides, the IC50 in [5] and in experiment [15] was greater than 50 µg/mL in each case.

As for 4E10 (antibody), the IC50 (µg/ml), pseudovirus neutralization turned out to be 7.36 µg/mL in experiment [1]; 4.67 µg/mL in [2]; 6.32 µg/mL in [6]; 1.23 µg/mL in experiment [7]; 9.87 µg/mL in experiment [8]; 18.3 µg/mL in experiment [9]. In addition, the IC50 (µg/ml), pseudovirus neutralization in experiment [10] was 0.53 µg/mL; in [11], 8.84 µg/mL; in experiment [12], 1.82 µg/mL; in [13], 1.46 µg/mL; in [14] it was 1.44 µg/mL; in [16] it was 12.2 µg/mL. In addition, the IC50 (µg/ml), pseudovirus neutralization in experiment [17] was determined as 8.88 µg/mL. In addition, the neutralization IC50 in experiment [3] is 11.2 µg/mL; in experiment [4] it was greater than 50 µg/mL; in experiment [18] it was 1.02 µg/mL. For the same substance, the results for the half-maximal inhibitory concentration (IC50) in [5] and in [15] were 11 µg/mL and 2.97 µg/mL, respectively.

For the substance 5114_A19 (PGT-128) (antibody), the IC50 in experiment [19] is 1.58 µg/mL; in experiment [21], 1.48 µg/mL; in experiment [23] it was 0.014 µg/mL; in [27] it was greater than 50 µg/mL; in [28], greater than 50 µg/mL. For the same substance, the results for the Fold IC50 increase relative to wild-type in experiment [20], in experiment [22] and in experiment [32] were 0.6 fold, 1.3 fold and 0.5 fold, respectively. Besides, the IC50, single-round pseudovirus neutralization in experiment [24] came to 0.18 µg/mL; in [26], 0.005 µg/mL; in experiment [29] it was 0.032 µg/mL; in experiment [33] it was 0.005 µg/mL. Also, the neutralization IC50 in [25] was found to be 0.01 µg/mL; in [31], 0.003 µg/mL. In addition, the IC50, pseudovirus neutralization in experiment [30] is 0.763 µg/mL.

As for 5136_H01 (PGT-131) (antibody), the IC50 in experiment [19], in experiment [21], in experiment [23], in experiment [27] and in experiment [28] was greater than 50 µg/mL each time. Moreover, the Fold IC50 increase relative to wild-type in [20] was determined as 1 fold; in experiment [22], 0.9 fold; in experiment [32] it was 1.6 fold. The IC50, single-round pseudovirus neutralization worked out at 1.41 µg/mL in experiment [24], 0.01 µg/mL in [26], 0.017 µg/mL in experiment [29] and 0.035 µg/mL in experiment [33]. In addition, the values for the neutralization IC50 in experiment [25] and in [31] were 0.041 µg/mL and 1.01 µg/mL, respectively. This substance also displayed an IC50, pseudovirus neutralization in [30] greater than 50 µg/mL.

For the substance 5147_N06 (PGT-130) (antibody), the IC50 in experiment [19], in [21], in experiment [23], in [27] and in experiment [28] was greater than 50 µg/mL in each case. Also, the IC50 (ug/ml), neutralizing activity in [34] is greater than 10 µg/mL; in experiment [35], 0.0173 µg/mL. Further, the Fold IC50 increase relative to wild-type in experiment [20] worked out at 2.4 fold; in [22] it was 1 fold; in experiment [32] it was 0.4 fold. The IC50, single-round pseudovirus neutralization was 0.337 µg/mL in [24], 0.005 µg/mL in experiment [26], 0.006 µg/mL in experiment [29] and 0.308 µg/mL in [33]. In addition, the neutralization IC50 in experiment [25] was determined as 0.037 µg/mL; in experiment [31] it was 0.039 µg/mL. The substance further came in with an IC50, pseudovirus neutralization in experiment [30] greater than 50 µg/mL.

As for 5329_C19 (PGT-136) (antibody), the concentration for half-maximal inhibition (IC50) in [19] is greater than 50 µg/mL; in experiment [21], greater than 50 µg/mL; in experiment [23] it was 13.6 µg/mL; in [27], greater than 50 µg/mL; in [28] it was greater than 50 µg/mL. Also, the IC50, single-round pseudovirus neutralization in [24], in experiment [26], in experiment [29] and in experiment [33] was greater than 50 µg/mL throughout. Moreover, the neutralization IC50 in [25] and in experiment [31] was greater than 50 µg/mL throughout. The substance also yielded an IC50, pseudovirus neutralization in [30] greater than 50 µg/mL.

Turning to 5343_B08 (PGT-135) (antibody), the 50% inhibitory concentration (IC50) in experiment [19] was 21.8 µg/mL; in experiment [21] it was 5.15 µg/mL; in [23] it was 0.014 µg/mL; in experiment [27], greater than 50 µg/mL; in [28] it was greater than 50 µg/mL. Also, the Fold IC50 increase relative to wild-type in experiment [20] stood at 0.8 fold; in experiment [22], 0.4 fold; in experiment [32], 1.1 fold. Also, the IC50, single-round pseudovirus neutralization in experiment [24], in [26], in experiment [29] and in experiment [33] was greater than 50 µg/mL each time. Moreover, the figures for the neutralization IC50 in experiment [25] and in [31] were 0.068 µg/mL and 1.42 µg/mL, respectively. The same substance registered an IC50, pseudovirus neutralization in experiment [30] greater than 50 µg/mL.

Turning to 5345_I01 (PGT-137) (antibody), the half-maximal inhibitory concentration (IC50) was greater than 50 µg/mL in experiment [19]; greater than 50 µg/mL in experiment [21]; 0.408 µg/mL in experiment [23]; greater than 50 µg/mL in experiment [27]; greater than 50 µg/mL in experiment [28]. Besides, the IC50, single-round pseudovirus neutralization in experiment [24], in experiment [26], in experiment [29] and in [33] was greater than 50 µg/mL in each case. Also, the neutralization IC50 in experiment [25] came out at 0.092 µg/mL; in [31] it was 0.148 µg/mL. In addition, the IC50, pseudovirus neutralization in experiment [30] was greater than 50 µg/mL.
